# Source: the nanobody polyreactivity screen of Harvey et al. (2022)
# Test: yeast display, Sf9 membrane polyspecificity reagent, FACS + sequencing; frameworks hold sequencing errors
# Summary of the method: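 Using colony PCR, genes from sorted yeast display clones were amplified, then sequenced on MiSeq at 2 × 250 and filtered by CDR length. The clones had been stained with 10% biotinylated, detergent-solubilized Sf9 membrane reagent for 1 hour at 4 °C and sorted by FACS into low and high (top ~1%) gates on anti-HA and streptavidin fluorescence. Polyreactivity labels come from the gate of origin.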
row,Sequence,polyreactivity (PSR sort gate)
1,QVQLVESGGRLVQAGGSLRLSCAASGSIFYSYAMGWYRQAPGKERELVAAISRSGVSTYYADSVKGRFTISRDNAKNTVYFQMNSLKPEDTAVYYCASPYFVSYQGYDYWGQGTQVTVSS,high polyreactivity
2,QVQLVESGGRLVQAGGSLRLSCAASGSILTYYTMGWYRQAPGKERELVARISWSGSRTYYADSVKGRFTISRDNAKNTVYLQMNSLKPEDTAVYYCAAKANWYANYDYWGQGTQVTVSS,high polyreactivity
3,QVQLVESGGRLVQAGGSLRLSCAASGSTFNINAMGWYRQAPGKERELVAAISWSGDITYYADSVKGRFTISRDNAKNNVYLQMNSLKPEDTAVYYCNTDDPGNYWYAEYDYWGQGTQVTVSS,low polyreactivity
4,QVQLVESGGRLVQAGGSLRLSCAASGSTFRYYAMGWYRQAPGKERELVAAITSSGTSTYYADSVKGRFTISRDNAKNTVYLQMNSLKPEDTAVYYCAAPPVYKWVSSRYDYWGQGTQVTVSS,low polyreactivity
5,QVQLVESGGRLVQAGGSLRLSCAASGYNFSKYAMGWYRQAPGKERELVAAISGSGGSTSYADSVKGRFTISRDNAKNTVYLHMNSLKPEDTAVYYCNARSRLQRGRMDYWGQGTQVTVSS,high polyreactivity
6,QVQLVESGGRLVQAGGSLRLSCAASGYTFGSYPMGWYRQAPGNERELVAAISGGGSTNYADSVKGRFTISRDNAKNTVYLQMNSMKPEDTAVYYCAAYPYVYQLRVEEYDHWGQGTQVTVSS,low polyreactivity
7,QVQLVESGGRLVQAGGSLRLSCAASGYTIDPYDMGWYRQAPGKERELVASISWSGGDTYYADSVKGRFTISRDNAKNTVYLQMNSLKPEDTAVYYCAADPGYPANRTEWSDFDYWGQGTQVTVSS,low polyreactivity
8,QVQLVESGGRLVQAGGSLRLSCAPSGFTFYRYAMGWYRQAPGKEREFVAAITWSGGSTYYADSVKGRFTISRDNSKNTVYLQMNSLKPEDTAVYYCAAYVGFDGTREYDYWGQGTQVTVSS,high polyreactivity
9,QVQLVESGGRLVQAGGSLRLSCAPSGNTFALNAMGWYRQAPGKERELVAAISRRGASTYYADSVKRRFTISRDYAKNTVYIQMNSLKPEDNALDYCAADSGPRVGFFYWGQGTQVTVSS,high polyreactivity
10,QVQLVESGGRLVQAGGSLRLSCPASGSTFGVYAMGWYRPEPGKEREFVAAINYSGRTYYADSVKGLFTISRDNAKITVYLQMNSLKPEDTAVYYCNADFFYRYYGAYDYWGQGNQVTVSS,high polyreactivity
11,QVQLVESGGRLVQAGGSLRLSSAASGRIFKKNAMGRYRQAPGKERELVAAISYRGGSTYYADSVKGRFTISRDNAKNSVYLQMNSLKPVDTAVYYCNVGSRGCWDASDYDYWGQGTQVTVSS,high polyreactivity
12,QVQLVESGGRLVQAGGSLRLTCAASGITFGDYAMGWYRQAPGKERELVAGINWSGDGTYYADSVKGRFTISRDNAKNTVYLQMNSLKPEDTAVYYCAAETFYDYGGYDYWGQGTQVTVSS,low polyreactivity
13,QVQLVESGGRLVQAGGSLRLTCAATGRTFVRNPMGSYRQAPGKERELVATIRSGGSTNYADSVKGRFTISRDNAKNTVYLQMNSLKPEDTAVYYCATQGSRARYDYYYWGQGTQVTVSS,high polyreactivity
14,QVQLVESGGRLVQAGGSLSLSCAASGRTFHGYAMGWYRQAPGKERELVARINWSDGRTYYADSVKGRFTISRDNAKNTDYLQMNSLKPEDTAVYYCAADKTVSYAPAWYYYWGQGTQVSVSS,low polyreactivity
15,QVQLVESGGRLVQAGGSRRLSCAASGFTLRRNAMGWYRQAPGKERELVAAISSSGSTYYADSVKGRFTISRDNAKNTVYLQMNSLKPEDTAVYYCAALSKKVRTGQYNVGGDYWGQGTQVTVSS,high polyreactivity
16,QVQLVESGGRLVQAGGTLRLSCAASGNIFFVYDMGWYRQPPGKESELVAAISWSGGSTYADSVKGRFTISRDNAKNTVYLQMNSLKPEDTAVYYCAADVAYVEYDYWGQGTQVTVSS,low polyreactivity
17,QVQLVESGGRLVQARGSLSLSCAASGRTFLRYAMGWYRQAPGKERELVAAISQRGGSTYYADSVKGRFTISRDNAKNTVYLQMNRLKPEDTAVYYCAADFPSSQAVDSWGQGTQVTVSS,high polyreactivity
18,QVQLVESGGRLVQPGGSLRLSCAASGFIFFYYAMGWYSQAPGKESELVAAISSGGSTNYADSVKGRFTISRDNAKNTVYLQMNSLKPEDTAVYYCAKRPTGGYKYYYTTSKYDYWGQGTQVTVSS,low polyreactivity
19,QVQLVESGGSLLQAGCSLRLSCAASGFIIAWYAMGWSRQAPGKEWELVAAISLSGGSTRYADSVKGRFTISRDNAKNPVYLQMNCLKPEDTAVYYCNVDRWASTEYDYWGQGTQVTVSS,low polyreactivity
20,QVQLVESGGSLVKAGGSLRLSCAASGRIFGSNTIGWYRPEPGKERELVAAITSRGGSTYYADSVKGRFTISRDNAKNTVYLQMNSLKPEDTSVYYCAAKTVLFIFGYWGQGTQVSVSS,high polyreactivity
21,QVQLVESGGSLVQAGGSLRLICAASGFIFWTYAMGWYRQAPGKERELVARISWSGGSTYYADSVKGRFTNSRDNAKNTVYLQMNSLKPEDTAVYYCAALTESSSYGYWGQGTQVTVSS,low polyreactivity

row,Sequence,polyreactivity (PSR sort gate)
1,QVQLVESGGSLVQAGGSLRLSCAASGRIFHNNAMGWYRQAPGKERELVAAISTGGSTNYADSVKGRFTISRDNAKNTVYLQMNSLTPEDTAVYYCAAEHPVTYPTSKFDYWGQGTQVTVSS,low polyreactivity
2,QVQLVESGGSLVQAGGSLRLSCASSGYIFRLYAMGWYRHAPGKEREYVATITASGGTYYADSVKGRFTISRDNAKNTVYLQMNSLKPEDTAVYYCAAAKLRRLSRVRYVYWGQGTQVTVSS,high polyreactivity
3,QVQLVESGGVLVHAGGSLRLSCAASGITFEYYTMGWYRKAPGKERELVAAISSGGGSTYYADSVKGRFTISRDNAKNTVYLQMKSLKPEDTAVYYCAARGYRADQWEYDYWGQGTQVTVSS,low polyreactivity
4,QVQLVESGGVLVLVGGSLRLSCADSGMTFYWYTMGWYRQAPGKERELVAAITRRSARTYYADSVKGRFSISRDNAKNTVYLQMNILKPEDTAVYYCGAAGRPGGYVQRDSWGQGTQVTVSS,high polyreactivity
5,QVQLVESGGVLVQAGGRLRLSCAASGLTFYLYAMGWYRQAPGKQREFVAAISRSGTSTYYADSVKGRFTISRDYAKNTVNLQKNSLKPDDTAVYYCAALNYHKFAHKYDYWGQGTPVTVSS,low polyreactivity
6,QVQLVESGGVLVQAGGSLRFSCAASGIIFDQYAMGWYRQAPGKEREFVAVITRSGGSTYYADSVKGRFTISRDNAKKTVYLQMNSLKPEDTAVYYCAAPRLLGKRRRTNDYWGQGTQVTVSS,high polyreactivity
7,QVQLVESGGVLVQAGGSLRLICAASGSIFGWNTKGWYRQSAGKERELVAGITRGGSTYYADSVKGRFTISRDNAKNTVYLQMNRQKPEDTAVYYCAALVYRAWEFEFWGQGTQVTVSS,high polyreactivity
8,QVQLVESGGVLVQAGGSLRLRCAASGRIFNRNAMGWYRQAPGKERELVAAITSCGSTNYADSVKGRFTISRDNAKNTVYLQMNSLKPEDTAVYYCNVYYHFFRLKTTYLRYYYWGQGTQVTVSS,high polyreactivity
9,QVQLVESGGVLVQAGGSLRLRCAASGRIFSRYTMGWYRQAPGKERELVAAIRNTGSTNYADSVKGRFTISRDNAKNTVYLQMNSLKPEDTAVYYCNARTAYGAYHYYYPQRMDYWGQGTQVTVSS,high polyreactivity
10,QVQLVESGGVLVQAGGSLRLSCAASGFTFNYYVMGWYRQAPWKERELVATITSVGSTYYADSVKGRFTISRDNAKNTVYLQMNSLKPEDTAVYYCNADWYWRVYWGQGTQVTVSS,high polyreactivity
11,QVQLVESGGVLVQAGGSLRLSCAASGFTFTPNAMGWYTQAPGKERELVAAIDWNGGSTYYADAVKGRFTISRDNAKNTVYLQMNSLKPEDTAVYYCAADDEEWKVITDYDYWGQGTQVTVSS,low polyreactivity
12,QVQLVESGGVLVQAGGSLRLSCAASGGIFNQYAMGWYRQAPGKERELVAAISSSGSSTYYADSVKGRFTISRDNAKNTVYLLMNSLKPEDTAVYYCNTYYSYQRVGYWGQGTQVTVSS,high polyreactivity
13,QVQLVESGGVLVQAGGSLRLSCAASGLNLAPNAMGWYRQAPGKEMELVAAITRSGGDTYYADSVKGRFTISRENAKNTVYLQMNSLKPEDTAVYYCAKARPGFLYDHWGQGTQVTVSS,high polyreactivity
14,QVQLVESGGVLVQAGGSLRLSCAASGLTFSWYAMGWYRQAPGKERELVASINYSGANTYYADSVKGRFTISRDNAQNTVFLQMNSLKPEDTAVYYCNSRLRRYQNERVTYDYWGQGTQVTVSS,high polyreactivity
15,QVQLVESGGVLVQAGGSLRLSCAASGRIFRSYALGWYRQAPGKETEFVAAISSGGSTNYADSVKGRFTISRDNAKNTVYLQMNSLKREDTAVYYCAADLWAYTWYWHSDYWGQGTQVTVSS,low polyreactivity
16,QVQLVESGGVLVQAGGSLRLSCAASGRTFNAYTMGWYRQAPGKERELVAAITSSGGNTYYADSVKGRFTITRDNGKNTVFLQMNSLKPEDTAVYYCNTVYLYGTHDYWGQGTQLTVSS,low polyreactivity
17,QVQLVESGGVLVQAGGSLRLSCAASGRTFRYYGMGWYRQAPGKERVVAAITWSGDTTYYADSVKGRFTISRDNAKNTVYLQMNSLKPEDTAVYYCAAQSWHRYYYWGQGTQVTVSS,high polyreactivity
18,QVQLVESGGVLVQAGGSLRLSCAASGRTFSPYAMGWARQAPGKDRELVAAITSRGASTYYADSVKGRFTISRDNAKNTVYLQMNSLKPEDTAVYYCNSGRTYRRLGDYWGQGTQVTVSS,high polyreactivity
19,QVQLVESGGVLVQAGGSLRLSCAASGRTFYYYAMGWYRQAPGKERELVASISWDGGNTYYADSVKGRFTISRDTAKNTVYLHMNSLKPEDTAVYYCNRRFYHKDDYWGQGTQVTVSS,high polyreactivity
20,QVQLVESGGVLVQAGGSLRLSCAASGRTLRSYAMGWYRHAPGKERELVAAISRSGGSTYYADSVKGRFTISRDNAKNTVYLQMNSLKPEDTAVYYCATRYLGRLDYWGQGTQVTVSS,high polyreactivity
